This note sets out measurements from patent US20250313631A1 (HUMMINGBIRD BIOSCIENCE PTE, published 2025).

For test [1], the target named is T1, recombinant human VISTA (His-tagged) (human, UniProt Q9H7M9 33-194).
T1 construct: bought soluble protein (Sino Biological); also called hVISTA; human VISTA polypeptide
Kind of test: ELISA, plate coated with human VISTA. In general terms: In an ELISA, binding on a coated surface is turned into a signal by an enzyme label.

The target in test [2] is T1, recombinant human VISTA (His-tagged). Put plainly: ELISA, plate coated with human VISTA. The source holds these as a separate data set.
The target in test [3] is T2, human PD-L1 (human, UniProt Q9NZQ7 19-239).
T2 construct: captured through a His tag in the BLI experiments; also called hPD-L1; B7H1/PDL-1
Kind of test: ELISA, plate coated with human B7H1 (PDL1), antibody titrated.

The target in test [4] is T1, recombinant human VISTA (His-tagged). Kind of test: antigen-binding ELISA; HMBD-002 in F3, day 30 at 40°C.
Test [5] has the same target. Kind of test: antigen-binding ELISA; HMBD-002 in F10, day 10 at 40°C.
Test [6] has the same target. Put plainly: antigen-binding ELISA; HMBD-002 in F7, day 30 at 40°C.
For test [7] the target is unchanged. Put plainly: antigen-binding ELISA; HMBD-002 in F4, day 10 at 40°C.
The target is the same in test [8]. Kind of test: antigen-binding ELISA; HMBD-002 10 mg/mL in F4, day 0.
Test [9] shares this target. Put plainly: antigen-binding ELISA; HMBD-002 in F2, day 10 at 40°C.
Test [10] has as its target T3, recombinant mouse VISTA (His-tagged) (mouse, UniProt Q9D659 33-191).
T3 construct: also called murine VISTA; mVISTA
T3 sequence (looked up): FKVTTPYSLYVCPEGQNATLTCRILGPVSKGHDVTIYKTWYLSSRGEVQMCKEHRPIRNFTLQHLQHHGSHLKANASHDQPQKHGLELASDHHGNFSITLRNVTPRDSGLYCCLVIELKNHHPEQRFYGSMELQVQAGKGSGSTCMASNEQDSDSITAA
Kind of test: SPR (Biacore), VISTA-HIS captured, antibody as analyte, 1:1 model; SPR (Biacore), mouse VISTA. A general note: Surface plasmon resonance follows binding to a sensor surface in real time, without labels.

The target in test [11] is T1, recombinant human VISTA (His-tagged). Put plainly: antigen-binding ELISA; HMBD-002 in F5, day 30 at 40°C.
Test [12] shares this target. Put plainly: antigen-binding ELISA; HMBD-002 10 mg/mL in F1, day 0.
Test [13] shares this target. Put plainly: antigen-binding ELISA; HMBD-002 in F4, day 30 at 40°C.
Test [14] addresses T4, recombinant rat VISTA (His-tagged) (rat, UniProt A0ABK0L5H3 33-192).
T4 sequence: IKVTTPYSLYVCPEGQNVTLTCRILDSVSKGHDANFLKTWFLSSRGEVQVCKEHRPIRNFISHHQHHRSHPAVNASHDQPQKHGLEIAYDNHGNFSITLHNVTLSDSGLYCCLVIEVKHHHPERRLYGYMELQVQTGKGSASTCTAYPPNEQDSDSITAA
Kind of test: SPR (Biacore), VISTA-HIS captured, antibody as analyte, 1:1 model; SPR (Biacore), rat VISTA.

Test [15] addresses T1, recombinant human VISTA (His-tagged). Kind of test: antigen-binding ELISA; HMBD-002 10 mg/mL in F10, day 0.
Test [16] shares this target. Kind of test: antigen-binding ELISA; HMBD-002 in F4, day 20 at 40°C.
Test [17] has the same target. Kind of test: ELISA, target protein coated, A450 against log M of antibody.
The target of test [18] is human CTLA4 (human, UniProt P16410 36-162). The test is described as above.
In test [19] the target is T1, recombinant human VISTA (His-tagged). Put plainly: BLI (Octet), 1:1 global fit, His-tagged human VISTA captured. Background: BLI is a label-free optical method that tracks binding on a fibre tip over time.
Test [20] has as its target T3, recombinant mouse VISTA (His-tagged). Kind of test: BLI (Octet QK384): His-tagged murine VISTA on anti-Penta-HIS tips, V4 666.5 to 41.7 nM as analyte, global fit.

Residue numbers refer to the chain shown, from its start. Names and notes keep the numbering of the source. Some results are limits rather than exact numbers.

Sequence of human CTLA4 (P16410 36-162 limits assumed): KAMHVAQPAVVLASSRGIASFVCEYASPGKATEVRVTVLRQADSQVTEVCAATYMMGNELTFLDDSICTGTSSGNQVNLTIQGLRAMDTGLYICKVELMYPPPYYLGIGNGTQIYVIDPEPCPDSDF
T2 sequence (Q9NZQ7 19-239 limits assumed): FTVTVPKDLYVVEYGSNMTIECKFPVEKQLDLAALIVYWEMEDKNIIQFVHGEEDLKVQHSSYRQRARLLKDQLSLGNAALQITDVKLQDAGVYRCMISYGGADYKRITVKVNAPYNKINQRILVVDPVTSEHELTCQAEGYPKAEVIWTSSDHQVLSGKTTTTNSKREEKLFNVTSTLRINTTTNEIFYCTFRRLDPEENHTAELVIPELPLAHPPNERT

B1: anti-VISTA clone V4-C24 IgG1 (antibody, V domains shown)
VH: QVQLQESGPGLVKPSDTLSLTCTVSGYSITSDYTWNWIRQTPGKGLEWIGHITYSGSVSYNPSLRSRVTISRDTSKNQFSLKLSSVTAADTATYSCARALYYPWYFDVWGTGTTVTVSS
VL: EIVLTQSPATLSLSPGERATLSCRASSSVGYIHWYQQKPGQAPRPLIYTTSYRATGIPARFSGSGSGTDNTLTISSLEPEDSAVYYCQQWSSYPPITFGGGTKLEVKR
As usually defined, the EC50 (read off the curve) is the concentration giving half of the maximal effect. On to B1, for which the “EC50 (read off the curve)” value in test [1] is around 0.02 nM.

B2: anti-VISTA clone V4-C27 IgG1 (antibody, V domains shown)
VH: B1 VH
VL: B1 VL with T49A, S51Y, Y52N
As for B2, the “EC50 (read off the curve)” value in [2] is around 0.01 nM.

B3: V4-C26 hIgG4 (antibody)
heavy: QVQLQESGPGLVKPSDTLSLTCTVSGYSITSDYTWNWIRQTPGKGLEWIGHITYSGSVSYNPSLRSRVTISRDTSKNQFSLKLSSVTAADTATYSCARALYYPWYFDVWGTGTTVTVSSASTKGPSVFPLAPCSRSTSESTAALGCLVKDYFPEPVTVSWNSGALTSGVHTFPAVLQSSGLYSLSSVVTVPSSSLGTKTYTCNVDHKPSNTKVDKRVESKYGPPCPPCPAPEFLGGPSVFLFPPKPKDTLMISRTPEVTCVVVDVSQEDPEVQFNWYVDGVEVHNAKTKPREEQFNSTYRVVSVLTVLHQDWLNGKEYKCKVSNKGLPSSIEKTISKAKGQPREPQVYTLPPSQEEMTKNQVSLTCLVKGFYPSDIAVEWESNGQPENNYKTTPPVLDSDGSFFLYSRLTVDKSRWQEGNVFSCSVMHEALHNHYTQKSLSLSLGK
light: EIVLTQSPATLSLSPGERATLSCRASSSVGYIHWYQQKPGQAPRPIIYTTSNRATGIPARFSGSGSGTDNTLTISSLEPEDSAVYYCQQWSSYPPITFGGGTKLEVKRTVAAPSVFIFPPSDEQLKSGTASVVCLLNNFYPREAKVQWKVDNALQSGNSQESVTEQDSKDSTYSLSSTLTLSKADYEKHKVYACEVTHQGLSSPVTKSFNRGEC
notes: human IgG4 (S228P)/kappa format; also called HMBD-002; HMBD-002-V4C26
For orientation: EC50 means the concentration needed to bring the measured effect to its halfway point. What is called Kd is the concentration at which binding is half-saturated. In the case of B3, the binding result in test [3] is reported as “no binding (tested: about 3e-8 M)”. In addition, the concentration for a half-maximal effect (EC50) in test [4] was 0.0227 nM; in [5] it was 0.0281 nM; in [6], 0.0217 nM; in test [7], 0.0325 nM; in test [8], 0.0357 nM; in [9], 0.0322 nM. In addition, the EC50 is 0.0223 nM in [11]; 0.04 nM in [12]; 0.0227 nM in test [13]; 0.0321 nM in [15]; 0.0205 nM in test [16]. The Kd in test [10] came out at 0.549 nM; in test [14], 0.382 nM.

B4: anti-VISTA clone 4M2-C12 IgG1 (antibody)
heavy: not shown
light: DIVITQTPAILSTSPGEKVTMTCRASSSVGYIHWYQQKPGSSPKPWIYATSNLASGVPARFSGSGSGTSNSLTITRVEAEDAATYYCQQWSSYPPITFGGGTKLEVKRTVAAPSVFIFPPSDEQLKSGTASVVCLLNNFYPREAKVQWKVDNALQSGNSQESVTEQDSKDSTYSLSSTLTLSKADYEKHKVYACEVTHQGLSSPVTKSFNRGEC
notes: mouse variable regions on human IgG1/kappa constant regions; also called V4; V4pr
As a reminder, the koff is the first-order rate constant of dissociation. In general, kon refers to the rate constant with which the complex forms. Take B4: the “EC50 (read off the curve)” value in test [17] is around 0.01 nM. The binding result in test [18] is “no binding (tested: about 10^-7.5 M (log M axis))”. Also, in test [19], the equilibrium dissociation constant (Kd) is below 0.001 nM, the off-rate constant (koff) is below 1e-07 s⁻¹ and the kon is 128000 M⁻¹ s⁻¹. For the same molecule, in test [20], the koff was 0.00445 s⁻¹ and the kon was found to be 39500 M⁻¹ s⁻¹.
